US7033773B1, “Screening assays for G protein coupled receptor agonists and antagonists” (The General Hospital Corporation, priority 1997, dated 2006)

Legend:
rat PTHR = biological target: T1, rat PTHR (Rattus norvegicus, UniProt P25961); assay: Cellular phosphate uptake in LLC-PK1 cells expressing rat PTHR; type: cell-based
T1 construct: expressed in transfected cells; host or cells: LLC-PK1 porcine renal epithelial cells (EW5; also EW29, AR-C38, AR-B44)
T1 sequence (P25961 27-591): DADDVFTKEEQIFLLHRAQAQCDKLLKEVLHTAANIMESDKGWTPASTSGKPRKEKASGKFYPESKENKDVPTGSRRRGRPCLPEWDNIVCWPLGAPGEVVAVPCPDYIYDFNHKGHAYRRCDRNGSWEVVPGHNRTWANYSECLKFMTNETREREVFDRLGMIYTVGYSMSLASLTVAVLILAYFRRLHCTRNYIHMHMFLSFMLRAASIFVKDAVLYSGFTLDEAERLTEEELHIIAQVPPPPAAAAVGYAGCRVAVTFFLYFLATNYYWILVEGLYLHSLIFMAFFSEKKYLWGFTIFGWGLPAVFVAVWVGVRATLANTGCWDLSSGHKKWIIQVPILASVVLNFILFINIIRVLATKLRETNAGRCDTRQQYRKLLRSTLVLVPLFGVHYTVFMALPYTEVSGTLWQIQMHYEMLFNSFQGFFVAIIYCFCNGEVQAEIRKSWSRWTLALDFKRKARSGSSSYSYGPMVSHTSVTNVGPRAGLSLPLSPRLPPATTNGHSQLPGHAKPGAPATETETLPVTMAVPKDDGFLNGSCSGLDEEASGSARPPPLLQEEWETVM
Protocol: Cells were seeded into 24-well plates at a density of 2.5×10^5 cells/well and cultured for a further 2 days before study. Twenty four hours before assay, cells were refed with 0.5 ml of DMEM containing 0.1% BSA. The next day, cells were refed with serum-free medium (DMEM+0.1% BSA) containing drugs or peptides, and the incubations were continued at 37° C. under 5% CO2 in air for another 6 hr. Cells then were washed with prewarmed Buffer B without BSA and Na2HPO4 and then were incubated at 37° C. for 5 min in 0.25 ml of the same buffer containing [^32P]orthophosphate (4 uCi/ml) and 0.1 mM Na2HPO4. Phosphate uptake was arrested by adding 1 ml of ice-cold sodium-free “stop buffer” [10 mM HEPES (pH 7.4), 140 mM choline chloride, and 5 mM sodium arsenate], followed by two further washes with same buffer. The drained cell layer then was solubilized in 0.5 ml of Lysis Buffer, and cell-associated radioactivity was determined by Cerenkov counting, as previously described (Guo, J., et al., Endocrinology 136:3884-3891 (1995)).
Responses to hPTH(1-34) or hPTH(1-31) (1000 nM) were measured in EW5 cells, which express 320,000 rat PTHRs per cell. Each value is the mean±SEM of a representative experiment performed in triplicate. Similar results were obtained in at least 3 individual experiments. […]

human PTH/PTHrP receptor [1] = biological target: T2, human PTH/PTHrP receptor (Homo sapiens, UniProt Q03431); assay: Cytosolic free calcium (fura-2) in LLC-PK1 cells expressing human PTHR; conditions: 100 nM peptide; HKRK B7 cells
T2 sequence (Q03431 27-593): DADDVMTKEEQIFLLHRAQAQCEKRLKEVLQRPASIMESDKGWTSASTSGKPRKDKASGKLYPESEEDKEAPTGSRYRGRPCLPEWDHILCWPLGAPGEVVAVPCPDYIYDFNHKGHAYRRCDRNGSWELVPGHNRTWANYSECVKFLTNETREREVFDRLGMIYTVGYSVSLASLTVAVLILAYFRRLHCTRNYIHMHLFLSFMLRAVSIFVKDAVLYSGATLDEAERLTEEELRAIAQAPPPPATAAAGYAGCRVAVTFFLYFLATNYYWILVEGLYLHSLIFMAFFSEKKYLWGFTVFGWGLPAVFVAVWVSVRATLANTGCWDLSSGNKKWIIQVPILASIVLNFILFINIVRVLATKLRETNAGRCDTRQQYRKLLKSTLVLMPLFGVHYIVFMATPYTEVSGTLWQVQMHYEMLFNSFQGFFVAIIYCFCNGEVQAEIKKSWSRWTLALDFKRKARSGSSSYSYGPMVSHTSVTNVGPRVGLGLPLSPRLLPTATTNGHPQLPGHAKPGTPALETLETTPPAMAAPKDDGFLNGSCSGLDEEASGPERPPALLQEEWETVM
Protocol: Cytosolic free calcium was measured in fura 2AM-loaded confluent monolayers of cells.
Cytosolic free calcium was measured by dual fluorescence in cells loaded with the Ca^2+-sensitive intracellular probe fura-2. Cells were seeded onto glass coverslips at a density of 40,000-600,000/cm^2 and incubated for 2 days as described above. Coverslips were washed twice with PBS before loading in phosphate-free Buffer B containing 4 uM of fura-2/AM (Molecular Probes, Eugene, Oreg.) for 30 min at room temperature (22° C.). After washing twice with fura-free Buffer B, the coverslips were mounted in a cuvette containing 2 ml of phosphate-free Buffer B at 37° C. and the emission at 510 nm in response to alternating excitation at 340 and 380 nm was monitored using a ratiometric PTI Deltascan fluorescence spectrometer with excitation and emission bandwidths of 2 nm. After achieving a stable baseline, agonists were introduced by exchange into 2 ml of fresh buffer to which 10-20 ul of concentrated agonist stock (or vehicle alone) had been added. Peptide stocks were prepared in 0.1% trifluoroacetic acid, ionomycin and phorbol esters were dissolved in dimethyl sulfoxide and all other additives were prepared in water. Maximum and minimum fluorescence signals were obtained by exposure to modified buffers containing 1 uM ionomycin plus 20 mM calcium or 2 mM EGTA in the nominal absence of calcium, respectively, and autofluorescence was estimated from signals obtained in the presence of ionomycin plus 2.5 mM MnCl2.

human PTH/PTHrP receptor [2] = biological target: T2, human PTH/PTHrP receptor; assay: Cellular phosphate uptake in LLC-PK1 cells expressing human PTHR; type: cell-based; set-up: transfected with a full-length human PTH/PTHrP receptor cDNA; expressed in transfected cells; conditions: HKRK B28 and HKRK B7 cells; peptides 1000 nM, 6 hr
Protocol: FIG. 8. Regulation of phosphate uptake by PTH in HKRK B7 and HKRK B28 cells. […] Results are expressed as percentage of basal, and each bar represents the mean±SEM of a representative experiment performed in triplicate. Similar results were obtained from at least 5 individual experiments. Cells were seeded into 24-well plates at a density of 2.5×10^5 cells/well and cultured for a further 2 days before study. Twenty four hours before assay, cells were refed with 0.5 ml of DMEM containing 0.1% BSA. The next day, cells were refed with serum-free medium (DMEM+0.1% BSA) containing drugs or peptides, and the incubations were continued at 37° C. under 5% CO2 in air for another 6 hr. Cells then were washed with prewarmed Buffer B without BSA and Na2HPO4 and then were incubated at 37° C. for 5 min in 0.25 ml of the same buffer containing [^32P]orthophosphate (4 uCi/ml) and 0.1 mM Na2HPO4. Phosphate uptake was arrested by adding 1 ml of ice-cold sodium-free “stop buffer” [10 mM HEPES (pH 7.4), 140 mM choline chloride, and 5 mM sodium arsenate], followed by two further washes with same buffer. The drained cell layer then was solubilized in 0.5 ml of Lysis Buffer, and cell-associated radioactivity was determined by Cerenkov counting, as previously described (Guo, J., et al., Endocrinology 136:3884-3891 (1995)).

human PTH/PTHrP receptor [3] = biological target: T2, human PTH/PTHrP receptor; assay: Urokinase-type plasminogen activator (u-PA) secretion bioassay in LLC-PK1 cells expressing human PTHR; conditions: for secreted u-PA: peptide 1000 nM, 16 hr, mean±SEM
Protocol: Cells were seeded into 96-well plates at a density of 6×10^4 cells/well and used the following day. The cells were washed once with 0.2 ml and then refed with 0.1 ml of prewarmed DMEM containing 0.05% BSA. After adding each stimulator, plates were returned to the incubator at 37° C. for 16 h. Conditioned medium (5 ul) then was transferred from each well to a clean microplate. […] Activity was expressed in Ploug units/well, using purified human urokinase (Calbiochem) as a standard.
Cells were incubated with the indicated peptides (1000 nM) for 16 hr before measurement of secreted u-PA present in the medium, which was expressed as a percentage of the activity measured in vehicle-treated controls. Values shown are means±SEM of triplicate determinations.

## hPTH(1-31)
Rat PTHR; EW5 cells
  stimulation of phosphate uptake (in words): identical
Rat PTHR; EW5 cells, 320,000 rat PTHRs per cell, peptide 1000 nM, mean±SEM
  Phosphate uptake: 134 ± 3 % of basal
Human PTH/PTHrP receptor [1]
  cytosolic free calcium transients: fully activated cytosolic free calcium transients
Human PTH/PTHrP receptor [2]
  maximal activation of phosphate uptake (in words): comparable maximal activation of phosphate uptake
Human PTH/PTHrP receptor [3]; HKRK B7 and HKRK B28 cells
  u-PA bioassay activity (in words): fully active
Human PTH/PTHrP receptor [3]; HKRK B7 cells and AB45 cells
  maximal activation of u-PA secretion compared with hPTH(1-34): identical to that of hPTH(1-34)
Human PTH/PTHrP receptor [3]; HKRK B7 cells
  secreted u-PA: 101 ± 9 percentage of the activity measured in vehicle-treated controls
Human PTH/PTHrP receptor [3]; HKRK B28 cells
  secreted u-PA: 101 ± 6 percentage of the activity measured in vehicle-treated controls
